PMC4346921, “Identification of the Specific Interactors of the Human Lariat RNA Debranching Enzyme 1 Protein” (International Journal of Molecular Sciences, 2015)

Target: T1, GST-hDbr1 (human, UniProt Q9UK59-1 1-544)
T1 construct: human Dbr1, cDNA NM_016216 inserted into BamHI and XhoI sites of GEX-6P-1; also called GST-hDbr1 protein; recombinant Dbr1 protein fused to GST; source: E. coli BL21 (DE3) CodonPlus-RIPL, purified (Glutathione Sepharose)
T1 sequence (looked up): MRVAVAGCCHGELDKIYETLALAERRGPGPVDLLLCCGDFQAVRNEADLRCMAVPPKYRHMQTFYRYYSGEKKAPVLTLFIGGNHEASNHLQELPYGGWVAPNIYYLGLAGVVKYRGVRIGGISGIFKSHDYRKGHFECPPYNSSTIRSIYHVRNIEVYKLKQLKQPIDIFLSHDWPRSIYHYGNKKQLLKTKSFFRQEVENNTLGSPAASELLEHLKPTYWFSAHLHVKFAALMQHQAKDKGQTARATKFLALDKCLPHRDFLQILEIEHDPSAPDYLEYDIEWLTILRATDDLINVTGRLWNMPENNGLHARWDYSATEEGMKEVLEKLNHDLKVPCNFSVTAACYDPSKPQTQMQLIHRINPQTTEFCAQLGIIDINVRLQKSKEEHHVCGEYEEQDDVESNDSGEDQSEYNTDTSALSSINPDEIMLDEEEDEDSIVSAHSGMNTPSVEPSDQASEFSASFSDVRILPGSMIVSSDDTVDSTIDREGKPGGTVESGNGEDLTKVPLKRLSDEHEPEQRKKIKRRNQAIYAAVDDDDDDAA
Test: pull-down; 2 μg purified His-tagged (T7-His) hDrn1 incubated with 5 μg GST or GST-hDbr1; bound proteins detected by Western blotting with anti-T7 tag antibody
Details: both partners purified

B1: T7-His-hDrn1 (natural protein, human, UniProt Q69YN2-1 1-538, looked up)
chain: MAQKPLRLLACGDVEGKFDILFNRVQAIQKKSGNFDLLLCVGNFFGSTQDAEWEEYKTGIKKAPIQTYVLGANNQETVKYFQDADGCELAENITYLGRKGIFTGSSGLQIVYLSGTESLNEPVPGYSFSPKDVSSLRMMLCTTSQFKGVDILLTSPWPKCVGNFGNSSGEVDTKKCGSALVSSLATGLKPRYHFAALEKTYYERLPYRNHIILQENAQHATRFIALANVGNPEKKKYLYAFSIVPMKLMDAAELVKQPPDVTENPYRKSGQEASIGKQILAPVEESACQFFFDLNEKQGRKRSSTGRDSKSSPHPKQPRKPPQPPGPCWFCLASPEVEKHLVVNIGTHCYLALAKGGLSDDHVLILPIGHYQSVVELSAEVVEEVEKYKATLRRFFKSRGKWCVVFERNYKSHHLQLQVIPVPISCSTTDDIKDAFITQAQEQQIELLEIPEHSDIKQIAQPGAAYFYVELDTGEKLFHRIKKNFPLQFGREVLASEAILNVPDKSDWRQCQISKEDEETLARRFRKDFEPYDFTLDD
notes: Cwf19L1/hDrn1 cDNA (NM_018294), same fragment as in myc-/Flag-hDrn1, between BamHI and XhoI sites of pET-28a; pET-28a with BamHI/XhoI would place the His and T7 tags at the N-terminus (surmised); also called T7- and His-tagged hDrn1 protein; His-tagged hDrn1; source: E. coli BL21 (DE3) CodonPlus-RIPL, purified (Ni-NTA)
B1: binds.
